Source: publication PMC3553976

Key:
U2AF65 RRM123;SF1 1-260 [1] = target: T1, U2AF65 RRM123;SF1 1-260 (Homo sapiens;Homo sapiens, UniProt P26368;Q15637 147-475;1-260, |); assay: SAXS
U2AF65 RRM123 = U2AF65 RRM123 (Homo sapiens, UniProt P26368 147-475); assay: EMSA
U2AF65 RRM123;SF1 1-260 [2] = target: T1, U2AF65 RRM123;SF1 1-260; assay: EMSA
[3] = target: U2AF65 RRM123;SF1 2-320 delta-linker (Homo sapiens;Homo sapiens?, UniProt P26368;Q15637 147-475;2-320, |del75-90); assay: EMSA
U2AF65 RRM123;SF1 2-320 = U2AF65 RRM123;SF1 2-320 (Homo sapiens;Homo sapiens?, UniProt P26368;Q15637 147-475;2-320, |); assay: EMSA
[4] = target: U2AF65 RRM123;SF1 2-320 delta-alpha1 (Homo sapiens;Homo sapiens?, UniProt P26368;Q15637 147-475;2-320, |del35-68); assay: EMSA

Measured: binding result

U2AF65 RRM123, sequence (P26368 147-475, one chain of several): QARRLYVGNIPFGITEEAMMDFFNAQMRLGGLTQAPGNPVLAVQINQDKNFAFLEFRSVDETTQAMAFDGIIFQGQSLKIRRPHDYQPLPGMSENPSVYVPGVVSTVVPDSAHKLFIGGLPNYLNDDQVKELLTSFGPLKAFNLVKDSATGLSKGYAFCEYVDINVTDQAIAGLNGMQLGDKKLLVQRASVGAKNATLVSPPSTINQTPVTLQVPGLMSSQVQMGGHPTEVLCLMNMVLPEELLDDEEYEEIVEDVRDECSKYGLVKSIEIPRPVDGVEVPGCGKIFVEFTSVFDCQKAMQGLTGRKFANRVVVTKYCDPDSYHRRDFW

UAUACUAACAAUUUUUUUUU (ssRNA) [20-mer BPS-Py tract RNA]
binds: U2AF65 RRM123;SF1 1-260 [1]

GGUCAUACUAACCCUGUCCCUUUUUUUUCCACAGC (ssRNA) [3'-splice site RNA (AdML intron 1, consensus BPS)]
not listed: U2AF65 RRM123;SF1 1-260 [1]
binds: all other assays above
